# Values of other authors, collected in paper PMC6440808.
# Like-named read-outs stand apart in the source and are kept apart here.
# Legend:
# C4b (Homo sapiens) [1] = target: C4b (Homo sapiens) (UniProt P0C0L4)
# C4b (Homo sapiens) [2] = target: C4b (Homo sapiens) (UniProt P0C0L4); remark: listed apart in the source
# Chain of UniProt P0C0L4 (P0C0L4 20-1744, chain 1 of 2): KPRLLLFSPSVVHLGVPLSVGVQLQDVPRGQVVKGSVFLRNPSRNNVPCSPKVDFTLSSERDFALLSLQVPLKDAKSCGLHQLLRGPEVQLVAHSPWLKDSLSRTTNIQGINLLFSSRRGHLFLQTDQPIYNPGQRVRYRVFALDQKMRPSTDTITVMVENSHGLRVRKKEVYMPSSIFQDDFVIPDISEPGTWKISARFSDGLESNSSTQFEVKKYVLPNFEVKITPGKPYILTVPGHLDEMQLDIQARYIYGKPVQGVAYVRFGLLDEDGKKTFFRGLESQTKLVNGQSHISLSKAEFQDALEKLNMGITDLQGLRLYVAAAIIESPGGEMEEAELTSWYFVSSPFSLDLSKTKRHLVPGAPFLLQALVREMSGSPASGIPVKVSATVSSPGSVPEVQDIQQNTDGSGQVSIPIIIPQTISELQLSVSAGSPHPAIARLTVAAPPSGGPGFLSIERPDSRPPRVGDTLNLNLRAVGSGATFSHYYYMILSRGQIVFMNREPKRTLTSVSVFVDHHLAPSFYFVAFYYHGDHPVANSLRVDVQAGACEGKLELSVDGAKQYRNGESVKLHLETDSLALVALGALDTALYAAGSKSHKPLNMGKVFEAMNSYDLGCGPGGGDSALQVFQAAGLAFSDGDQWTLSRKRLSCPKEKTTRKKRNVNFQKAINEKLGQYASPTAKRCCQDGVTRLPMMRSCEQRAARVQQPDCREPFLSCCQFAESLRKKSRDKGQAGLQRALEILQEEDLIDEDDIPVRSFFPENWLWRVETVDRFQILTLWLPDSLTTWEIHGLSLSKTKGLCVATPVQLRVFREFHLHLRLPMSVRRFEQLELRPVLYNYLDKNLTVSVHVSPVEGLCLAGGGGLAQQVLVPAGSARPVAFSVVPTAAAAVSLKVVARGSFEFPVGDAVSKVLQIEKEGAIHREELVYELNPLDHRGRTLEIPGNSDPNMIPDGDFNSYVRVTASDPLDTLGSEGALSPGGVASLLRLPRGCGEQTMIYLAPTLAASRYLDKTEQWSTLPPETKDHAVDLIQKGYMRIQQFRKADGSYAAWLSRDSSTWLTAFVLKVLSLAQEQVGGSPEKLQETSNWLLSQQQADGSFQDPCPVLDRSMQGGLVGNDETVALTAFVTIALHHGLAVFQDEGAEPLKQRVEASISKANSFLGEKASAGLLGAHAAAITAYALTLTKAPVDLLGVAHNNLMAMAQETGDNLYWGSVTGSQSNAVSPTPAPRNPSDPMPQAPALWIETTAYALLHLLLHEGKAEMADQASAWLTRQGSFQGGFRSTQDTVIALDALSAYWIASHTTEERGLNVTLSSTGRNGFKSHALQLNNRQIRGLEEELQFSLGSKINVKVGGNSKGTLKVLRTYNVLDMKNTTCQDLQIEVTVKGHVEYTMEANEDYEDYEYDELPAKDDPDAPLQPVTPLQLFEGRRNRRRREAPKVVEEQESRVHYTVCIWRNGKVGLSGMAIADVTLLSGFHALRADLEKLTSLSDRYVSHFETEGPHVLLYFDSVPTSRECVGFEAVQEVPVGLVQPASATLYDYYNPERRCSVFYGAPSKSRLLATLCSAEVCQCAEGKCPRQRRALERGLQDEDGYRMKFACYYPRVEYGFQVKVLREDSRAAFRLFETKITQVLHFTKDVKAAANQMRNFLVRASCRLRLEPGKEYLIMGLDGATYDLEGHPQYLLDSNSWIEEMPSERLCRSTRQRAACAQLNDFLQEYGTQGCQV
# Chain of UniProt P0C0L4 (P0C0L5 20-1744, chain 2 of 2, further chain): as the sequence (P0C0L4 20-1744, chain 1 of 2) above, with A888T, D1054G, P1101L, C1102S, L1105I, D1106H, N1157S, V1188A, L1191R, S1267A counted along it
Substance,Kd (C4b (Homo sapiens) [1]),Kd (C4b (Homo sapiens) [2])
Eap34 domains 3-4 (from UniProt Q99QS1),0.525 µM,
Eap domain 3 or 4 (individual) domain 3 / domain 4 (from UniProt Q2FWW1),,40 µM
